For assay [1], the target named is T1, human HHLA2 proteins (Acro Biosystems, B77-H52H5) (human, UniProt Q9UM44 23-344).
T1 construct: Bought recombinant protein coated on the ELISA plate; also called B7-H7; B7y
T1 sequence (looked up): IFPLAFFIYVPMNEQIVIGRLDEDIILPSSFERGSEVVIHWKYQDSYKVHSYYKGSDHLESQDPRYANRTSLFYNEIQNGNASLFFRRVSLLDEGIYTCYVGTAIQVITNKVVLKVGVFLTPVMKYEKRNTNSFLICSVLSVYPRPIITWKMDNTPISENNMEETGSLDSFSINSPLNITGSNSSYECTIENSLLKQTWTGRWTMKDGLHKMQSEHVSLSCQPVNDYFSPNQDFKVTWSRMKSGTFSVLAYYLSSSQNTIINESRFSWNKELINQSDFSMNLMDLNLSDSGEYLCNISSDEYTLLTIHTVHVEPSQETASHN
The assay can be described thus: ELISA, human HHLA2 protein coated. On the technique in general: In an ELISA, binding on a coated surface is turned into a signal by an enzyme label.

Assay [2] deals with T2, human HHLA2 on cells (K562-hHHLA2; HCC827) (human, UniProt Q9UM44 23-414).
T2 construct: whole, on cells; also called K562 cells overexpressing human HHLA2; HCC827 cell line highly expressing human HHLA2
T2 sequence (looked up): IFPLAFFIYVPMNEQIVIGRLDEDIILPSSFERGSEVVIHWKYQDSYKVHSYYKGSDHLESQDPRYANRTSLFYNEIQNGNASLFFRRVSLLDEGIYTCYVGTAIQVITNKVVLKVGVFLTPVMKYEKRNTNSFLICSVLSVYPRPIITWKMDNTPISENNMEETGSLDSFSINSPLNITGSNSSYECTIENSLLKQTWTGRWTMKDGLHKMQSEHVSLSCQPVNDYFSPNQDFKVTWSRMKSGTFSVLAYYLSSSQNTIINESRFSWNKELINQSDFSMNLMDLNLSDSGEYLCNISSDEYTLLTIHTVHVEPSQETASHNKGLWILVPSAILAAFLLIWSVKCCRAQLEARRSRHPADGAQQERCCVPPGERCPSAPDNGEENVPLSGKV
The assay can be described thus: flow cytometry on K562-hHHLA2 cells. Background: Flow cytometry measures light scatter and fluorescence of single cells or particles in a stream.

Assay [3] has as its target T2, human HHLA2 on cells (K562-hHHLA2; …). The assay can be described thus: cell-based or functional assay.
Assay [4] shares this target. The assay can be described thus: flow cytometry on HCC827 tumor cells highly expressing human HHLA2.

B1: Ab01-122M1 (antibody, V domains shown)
VH: DVQLQESGGGLVQPGGSLKLSCTASRRIFTFTAAGWYRQAPGQQREFVAVIANGGHTNYADSVKGRFTISRDNAKNTVYLQMNSLKPEDTAVYYCNTPPAFGSWGPGTQVTVSS
In the case of B1, the binding result in assay [1] and in assay [2] was “binds” in each case.

B2: Ab01-126M1 (antibody, V domains shown)
VH: DVQLQESGGGLVQPGGSLRLSCTASTRIFTFSAAGWYRQAPGKQREFVAVITGGGHTNYADSVKGRFTISRDNAKDTVYLQMNSLKPEDTAVYYCNTPPAFGSWGPGTQVTVSS
Take B2: the binding result in assay [1] and in assay [2] was “binds” in each case.

B3: Ab01-63M2 (antibody, V domains shown)
VH: DVQLQESGGGLVQPGGSLRLSCAASGFTLDYYVIGWFRQAPGKEREGVSCISSSDGSTYSADSVKGRFTISRDNAENTVYLQMNSLKPEDTAVYYCAARRSPGIEGWCALPFFFGSWGQGTQVTVSS
notes: also called candidate parental antibody Ab01-63M2
Usually EC50 stands for the concentration at which the effect is half-maximal. Regarding B3, the “EC50 (nM), promoting the killing effects of NK92MI on target cells (K562 overexpressing human HHLA2)” value in assay [3] amounted to 0.125 nM. In assay [4], the EC50 is 0.043 nM.

B4: Ab01-63Ghm25 (antibody, V domains shown)
VH: EVQLLESGGGLVQPGGSLRLSCAASGFTLDYYVIGWFRQAPGKEREGVSCISSSTGSTYSADSVKGRFTISRDTSKNTVYLQMNSLRAEDTAVYYCAARRSPGIEGWCALPFFFGSWGQGTLVTVSS
notes: Humanized or engineered mutant of Ab01-63G4; also called mutant Ab01-63Ghm25
As for B4, the binding result in assay [1] is “binds”.

B5: Ab01-63Ghm26 (antibody, V domains shown)
VH: EVQLLESGGGLVQPGGSLRLSCAASGFTLDYYVIGWFRQAPGKEREGVSCISSSTGSTYSAQSVKGRFTISRDTSKNTVYLQMNSLRAEDTAVYYCAARRSPGIEGWCALPFFFGSWGQGTLVTVSS
notes: Humanized or engineered mutant of Ab01-63G4; also called mutant Ab01-63Ghm26
Turning to B5, the binding result in assay [1] is reported as “binds”.

B6: Ab01-63Ghm28 (antibody, V domains shown)
VH: EVQLLESGGGLVQPGGSLRLSCAASGFTLDYYVIGWFRQAPGKEREGVSCISSSTGSTYSADSVKGRFTISRDTSKNTVYLQMNSLRAEDTAVYYCAARRSPGIEGWCALPEFFGSWGQGTLVTVSS
notes: Humanized or engineered mutant of Ab01-63G4; also called mutant Ab01-63Ghm28
As for B6, the binding result in assay [1] was “binds”.

B7: Ab01-110M1 (antibody, V domains shown)
VH: DVQLQESGGGLVQTGGSLRLSCAAPGFTLDDYAIGWFRQAPGKERERISCITSSTNRTYYANSVKGRFTISRDSAKNTVYLQMNSLKPEDTAVYYCAAEPILCVLWSAGGAMDYWGKGTQVTVSS
With B7, the binding result in assay [1] and in assay [2] was “binds” throughout.

B8: Ab01-121M1 (antibody, V domains shown)
VH: DVQLQESGGGLVQPGGSLRLSCAASGSRFSFNVMGWHRQAPGKQRELVALISSGGTANYADSVKGRFTISRDNAGNTMYLQMNTLKPEDTAVYYCTATTPVGQYWGQGTQVTVSS
For the molecule B8, the binding result in assay [1] and in assay [2] was “binds” each time.

B9: positive control antibody 2C4 (antibody, V domains shown)
VH: EVHLQQSGPELEKPGVSVKISCKASGFSFTDYNMNWVKQSSGKSLEWIGNIDPYYGRINYNQKFKGKATLSVDKSSSTAYMHLKSLTSEDSAVYYCATGAYTSGYSWFAYWGQGTLVTVSS
VL: ENVLTQSPGIMAASLGEKVTMTCSASSSVSSSYLHWYQQRSGASPKPLIHRTSNLASGVPARFSGSGSGTSYSLTISSVEAEDDATYYCQQWSGYPFTFGSGTKLEIK
notes: also called positive control 2C4; positive antibody
As to B9, in assay [3], the “EC50 (nM), promoting the killing effects of NK92MI on target cells (K562 overexpressing human HHLA2)” value is 0.192 nM. In assay [4], the EC50 was 0.281 nM.

B10: Ab01-91M2 (antibody, V domains shown)
VH: DVQLQESGGGLVQPGGSLRLSCAASGFTFSNYLMGWYRQAPGKERELVAAINSAGYSTVYAESVKGRFTTSRDNAKSMVYLQMNSLKAEDTAVYYCNARYDRWHDYWGQGTQVTVSS
With B10, the binding result in assay [1] and in assay [2] was “binds” throughout.

B11: Ab01-84M2 (antibody, V domains shown)
VH: DVQLQESGGGLVQAGGSLRLSCAASGFPFDDYSIGWFRQAPGKAREGISCISSTHGTTYYTDSVKDRFTITRDNAKNTVYLQMNNLKPEDAAVYYCAAGLDGLACHRRDSGSRYRTQLYDYWGQGTQVTVSS
Regarding B11, the binding result in assay [1] and in assay [2] was “binds” throughout.

B12: Ab01-7M2 (antibody, V domains shown)
VH: DVQLQESGGGLVQPGGSLRLSCAASGFTFSSTPMYWYRQAPGKERDFVAIMAPGGYEDIADSVRGRFSISRDNGNNTMYLQMNSLKPEDTALYYCRALNSWGQGTQVTVSS
In the case of B12, the binding result in assay [1] and in assay [2] was “binds” each time.

The values are drawn from patent EP4778940A1 (Artivila (ShenZhen) Innovation Center, Ltd., dated 2026).
